Source: patent publication US7183387 (Genentech, dated 2007)

T1: human FcγRIIA-H131 α subunit extracellular domain-His6-GST fusion protein (human, UniProt P12318 34-217)
T1 construct: also called FcγRIIA-His131; not shown: glutathione S-transferase (GST)
T1 sequence: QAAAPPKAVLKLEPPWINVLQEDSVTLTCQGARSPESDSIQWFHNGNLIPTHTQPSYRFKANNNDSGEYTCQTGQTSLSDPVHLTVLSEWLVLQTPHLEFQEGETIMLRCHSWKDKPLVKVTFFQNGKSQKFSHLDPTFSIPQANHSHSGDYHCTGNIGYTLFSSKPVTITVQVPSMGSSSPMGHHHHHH

T2: human FcγRIIA-R131 α subunit extracellular domain-His6-GST fusion protein (human, UniProt P12318 34-217)
T2 construct: ECD-6His-GST fusion made in 293 cells, coated on the plate; also called FcγRIIA-Arg131; not shown: glutathione S-transferase (GST)
T2 sequence: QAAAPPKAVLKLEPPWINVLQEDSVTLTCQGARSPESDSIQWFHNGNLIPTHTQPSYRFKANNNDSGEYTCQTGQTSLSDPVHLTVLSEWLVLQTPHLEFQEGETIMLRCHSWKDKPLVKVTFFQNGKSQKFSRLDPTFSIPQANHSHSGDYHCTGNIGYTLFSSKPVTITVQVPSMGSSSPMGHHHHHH


Experiments:
[1] = target: T1, human FcγRIIA-H131 α subunit …; assay: ELISA, IgG:IgE hexamer on coated FcγRIIA-H131-GST
[2] = target: T1, human FcγRIIA-H131 α subunit …; assay: ELISA; binding ratio on FcγRIIA-H131 divided by that on FcγRIIA-R131
[3] = target: T2, human FcγRIIA-R131 α subunit …; assay: ELISA, IgG:IgE hexamer on coated FcγRIIA-R131-GST; value carried over from Table 6, 7 or 8
[4] = target: T2, human FcγRIIA-R131 α subunit …; assay: ELISA, IgG:IgE hexamer on coated FcγRIIA-R131-GST; separate assays run together with the H131 assays

| Binder | ratio of binding of the variant to that of native IgG1 [1] | H131/R131 [2] | ratio of binding of the variant to that of native IgG1 [3] | ratio of binding of the variant to that of native IgG1 [4] |
| --- | --- | --- | --- | --- |
| anti-IgE E27 IgG1 variant His268Ala (antibody, also called H268(281)A; H281A) heavy: not shown light: DIQLTQSPSSLSASVGDRVTITCRASKPVDGEGDSYLNWYQQKPGKAPKLLIYAASYLESGVPSRFSGSGSGTDFTLTISSLQPEDFATYYCQQSHEDPYTFGQGTKVEIKRTVAAPSVFIFPPSDEQLKSGTASVVCLLNNFYPREAKVQWKVDNALQSGNSQESVTEQDSKDSTYSLSSTLTLSKADYEKHKVYACEVTHQGLSSPVTKSFNRGEC | 0.97 ratio (variant/native IgG1) | 0.75 ratio (H131 value/R131 value) | 1.21 ratio (variant/native IgG1) | 1.3 ratio (variant/native IgG1) |
| anti-IgE E27 IgG1 variant Lys317Ala (antibody, also called K317(336)A; IG2 46) heavy: not shown light: DIQLTQSPSSLSASVGDRVTITCRASKPVDGEGDSYLNWYQQKPGKAPKLLIYAASYLESGVPSRFSGSGSGTDFTLTISSLQPEDFATYYCQQSHEDPYTFGQGTKVEIKRTVAAPSVFIFPPSDEQLKSGTASVVCLLNNFYPREAKVQWKVDNALQSGNSQESVTEQDSKDSTYSLSSTLTLSKADYEKHKVYACEVTHQGLSSPVTKSFNRGEC | 1.08 ratio (variant/native IgG1) | 0.99 ratio (H131 value/R131 value) | 1.13 ratio (variant/native IgG1) | 1.1 ratio (variant/native IgG1) |
| anti-IgE E27 IgG1 variant Ser267Ala/His268Ala (antibody, also called S267(280)A H268(281)A; IG2 96) heavy: not shown light: DIQLTQSPSSLSASVGDRVTITCRASKPVDGEGDSYLNWYQQKPGKAPKLLIYAASYLESGVPSRFSGSGSGTDFTLTISSLQPEDFATYYCQQSHEDPYTFGQGTKVEIKRTVAAPSVFIFPPSDEQLKSGTASVVCLLNNFYPREAKVQWKVDNALQSGNSQESVTEQDSKDSTYSLSSTLTLSKADYEKHKVYACEVTHQGLSSPVTKSFNRGEC | 1.02 ratio (variant/native IgG1) | 0.65 ratio (H131 value/R131 value) | 1.41 ratio (variant/native IgG1) | 1.57 ratio (variant/native IgG1) |
| anti-IgE E27 IgG1 variant Ser267Gly (antibody, also called S267(280)G; IG2 189) heavy: not shown light: DIQLTQSPSSLSASVGDRVTITCRASKPVDGEGDSYLNWYQQKPGKAPKLLIYAASYLESGVPSRFSGSGSGTDFTLTISSLQPEDFATYYCQQSHEDPYTFGQGTKVEIKRTVAAPSVFIFPPSDEQLKSGTASVVCLLNNFYPREAKVQWKVDNALQSGNSQESVTEQDSKDSTYSLSSTLTLSKADYEKHKVYACEVTHQGLSSPVTKSFNRGEC | 0.54 ratio (variant/native IgG1) | 0.47 ratio (H131 value/R131 value) | 1.18 ratio (variant/native IgG1) | – |
| anti-IgE E27 IgG1 variant Thr307Ala (antibody, also called T307(326)A; IG2 41) heavy: not shown light: DIQLTQSPSSLSASVGDRVTITCRASKPVDGEGDSYLNWYQQKPGKAPKLLIYAASYLESGVPSRFSGSGSGTDFTLTISSLQPEDFATYYCQQSHEDPYTFGQGTKVEIKRTVAAPSVFIFPPSDEQLKSGTASVVCLLNNFYPREAKVQWKVDNALQSGNSQESVTEQDSKDSTYSLSSTLTLSKADYEKHKVYACEVTHQGLSSPVTKSFNRGEC | 1.18 ratio (variant/native IgG1) | 0.94 ratio (H131 value/R131 value) | 1.07 ratio (variant/native IgG1) | 1.28 ratio (variant/native IgG1) |
| anti-IgE E27 IgG1 variant Val305Ala (antibody, also called V305(324)A; IG2 40) heavy: not shown light: DIQLTQSPSSLSASVGDRVTITCRASKPVDGEGDSYLNWYQQKPGKAPKLLIYAASYLESGVPSRFSGSGSGTDFTLTISSLQPEDFATYYCQQSHEDPYTFGQGTKVEIKRTVAAPSVFIFPPSDEQLKSGTASVVCLLNNFYPREAKVQWKVDNALQSGNSQESVTEQDSKDSTYSLSSTLTLSKADYEKHKVYACEVTHQGLSSPVTKSFNRGEC | 1.06 ratio (variant/native IgG1) | 1.08 ratio (H131 value/R131 value) | 1.12 ratio (variant/native IgG1) | 1 ratio (variant/native IgG1) |
